In patent publication US20240002497A1 (Merck Sharp & Dohme, published 2024):
Where two headings read alike, the source gives them in different places. Blank lines part the entries; values can stand above or below the binder they belong to.

How the values were obtained:
[1] = target: T1, huNav1.7α on HEK cells (without β subunits) (human, UniProt Q15858 1-1988); assay: binding FACS, HEK cells (HEKa)
T1 construct: also called HEKa huNav1.7α

[2] = target: T2, huNav157 chimera 14 on cells (without β subunits) (human (huNav1.7α/huNav1.5α chimera)); assay: binding FACS, HEK FlpIn cells
T2 construct: also called HEK FlpIn Nav157ch14

[3] = target: T3, huNav157 chimera 14 + β1-β2-β3 on cells (human (huNav1.7α/huNav1.5α chimera)); assay: binding FACS, HEK FlpIn cells
T3 construct: Extracellular loops and transmembrane helices of Nav1.7α, intracellular loops of Nav1.5α; P2A linkers are cleaved co-translationally; also called HEK FlpIn Nav157ch14-β1-β2-β3; huNav157 chimera 14-beta1-beta2-beta3

[4] = target: huNav1.7α + β1 on HEK cells (human, UniProt Q15858 1-1988; Q07699 19-218); assay: binding FACS, HEK cells (HEKa/b1)
huNav1.7α + β1 [5] = target: huNav1.7α + β1 (human); assay: cell-based or functional assay
rhNav1.7α+β1-β2-β3 = target: T4, rhNav1.7α+β1-β2-β3 (rhesus monkey α subunit with human β …); assay: binding FACS, CHO FlpIn cells
T4 construct: P2A cleaves it into α, β1, β2, β3; also called rhNav1.7-beta1-beta2-beta3

huNav1.7α + β1 [6] = target: huNav1.7α + β1 (human); assay: cell-based or functional assay; remark: listed apart in the source
huNav1.7α = target: T5, huNav1.7α (human, UniProt Q15858 1-1988); assay: binding FACS, HEK
T5 construct: HEK cells expressing the α subunit without β subunits; also called huNav1.7 (alpha-subunit); Human Nav1.7α

huNav1.7α + β1 [7] = target: T6, huNav1.7α + β1 (human); assay: binding FACS, HEK
T6 construct: HEK293 cells; also called huNav1.7-beta1; huNav1.7-β1

[8] = target: T7, huNav1.7α + β1-β2-β3 (human Nav1.7α co-expressed with human Navβ1, Navβ2 and Navβ3 on cells) (human); assay: binding FACS, CHO FlpIn cells
T7 construct: also called huNav1.7-beta1-beta2-beta3; CHO FlpIn huNav1.7α + β1-β2-β3
How it was run: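 FLAG3-tagged ISVD, 30 min, 4° C, FACS buffer (PBS/10% FBS/NaN₃); 1×10^5 cells/well; detection murine anti-Flag; PI 1 μg/mL live gate; washes between steps.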

huNav1.7α + β1 [9] = target: T6, huNav1.7α + β1; assay: cell-based or functional assay; remark: listed apart in the source

B1: F010301641 (VHH)
VHH: EVQLVESGGGVVQPGGSLRLSCAASGSIFNINSMAWYRRAPGKQRELVASSTNGGSTNYADSVKGRFTISRDNAKNTVYLQMNSLRPEDTALYYCNALLQPSIYDISRTYWGQGTLVTVSS
notes: also called F0103275B05(R76_V78insT)(L11V, R76N, T83R, V89L)
EC50 [1]: 380 nM
EC50 [2]: 310 nM
EC50 [3]: 350 nM
EC50 [4]: 230 nM

B2: F010301162 (VHH)
VHH: EVQLVESGGGLVQPGGSLRLSCAASGMLFNRNTQGWYRQAPGKQRELVAFIFSGGWTNYNDSVKGRFTISRDNAKRTMYLQMNSLKPEDSAIYYCSLSRYQGQGTLVTVSS
Qpatch IC50 (huNav1.7α + β1 [5]): 32 nM

B3: F010301129 (VHH)
VHH: EVQLVESGGGLVQPGGSLRLSCAASGMLFNANTQGWYRQAPGKQRELVAFIFSGGWTNYNDSVKGRFTISRDNAKRTMYLQMNSLKPEDSAIYYCALSRYQGQGTLVTVSS
Qpatch IC50 (huNav1.7α + β1 [5]): 126 nM

B7: F010302368 (VHH)
VHH: EVQLVESGGGVVQPGGSLRLSCAASSRAFIRDVFTGWYRQAPGKQRELVARIYNGGNTNYADSVKGRFTISRDNAKKTVYLQMNSLRPEDTALYYCLFSGTISTGREYRSGDYWGQGTLVTVSS
notes: F010302365 background plus R39Q, A63V
binding result (rhNav1.7α+β1-β2-β3): no binding

B8: F010302333 (VHH)
VHH: EVQLVESGGGVVQPGGSLRLSCAASSRQFIRDVFTGWYRRAPGKQRELVARIYNEGNTNYADSAKGRFTISRDNAKKTVYLQMNSLRPEDTALYYCLFSGTISTGREYRSGDYWGQGTLVTVSS
notes: F010302365 background plus A28Q, G54E
binding result (rhNav1.7α+β1-β2-β3): no binding

B10: F010302366 (VHH)
VHH: EVQLVESGGGVVQPGGSLRLSCAASSRAFIRDVFTGWYRQAPGKQRELVARIYNGGNTNYADSAKGRFTISRDNAKKTVYLQMNSLRPEDTALYYCLFSGTISTGREYRSGDYWGQGTLVTVSS
notes: F010302365 background plus R39Q
binding result (rhNav1.7α+β1-β2-β3): no binding

B13: 65ASP (Fc fusion)
chain: EVQLVESGGGLVQPGGSLRLSCAASGSIFNINSMAWYRRAPGKQRELVASSTNGGSTNYADSVKGRFTISRDNAKRVYLQMNSLTPEDTAVYYCNALLQPSIYDISRTYWGQGTLVTVSS
notes: also called F0103275B05-5GS-Fc; not shown: 5GS linker; Fc moiety
Qpatch IC50 [M], HEK cells (huNav1.7α + β1 [6]): 1.2e-07 M
EC50 (huNav1.7α): 21 nM
EC50 (huNav1.7α + β1 [7]): 45 nM

B14: F0103275B05 (VHH)
VHH: EVQLVESGGGLVQPGGSLRLSCAASGSIFNINSMAWYRRAPGKQRELVASSTNGGSTNYADSVKGRFTISRDNAKRVYLQMNSLTPEDTAVYYCNALLQPSIYDISRTYWGQGTLVTVSS
notes: also called F0103275B05 (parental)-FLAG-HIS6
EC50 [1]: 14 nM
EC50 [8]: 66 nM
EC50 [2]: 12 nM
EC50 [3]: 33 nM
EC50 [4]: 39 nM

B15: F010301637 (VHH)
VHH: EVQLVESGGGVVQPGGSLRLSCAASGSIFNINSMAWYRRAPGKQRELVASSTNGGSTNYADSVKGRFTISRDNAKRVYLQMNSLRPEDTALYYCNALLQPSIYDISRTYWGQGTLVTVSS
notes: also called F0103275B05(L11V, T83R, V89L)
EC50 [1]: 13 nM
EC50 [8]: 56 nM
EC50 [2]: 11 nM
EC50 [3]: 29 nM
EC50 [4]: 30 nM

B17: F010301638 (VHH)
VHH: EVQLVESGGGVVQPGGSLRLSCAASGSIFNINSMAWYRQAPGKQRELVASSTNGGSTNYADSVKGRFTISRDNAKNVYLQMNSLRPEDTALYYCNALLQPSIYDISRTYWGQGTLVTVSS
notes: also called F0103275B05(L11V, R39Q, R76N, T83R, V89L)
EC50 [1]: 23 nM
EC50 [2]: 18 nM
EC50 [3]: 50 nM
EC50 [4]: 32 nM

B18: F010301558 (VHH)
VHH: EVQLVESGGGLVQAGGSLRLSCAASGRILRIGYMRWHRQGAGKQREFVARITGDSATGYADSVKGRFTISRDNAKNTVYLQMNNLNPEDTAVYYCEALVTASVRGGSIHSGTYWGRGTLVTVSS
Qpatch IC50 (huNav1.7α + β1 [9]): 8 nM

B19: F010301566 (VHH)
VHH: EVQLVESGGGLVQAGGSLRLSCDASGRILRIGYMRWHRQGAGKQREFVARITDGSATGYADSVKGRFTISRDNAKNTVYLQMNNLNPEDTAVYYCEALVTASVRGGSIHSGTYWGRGTLVTVSS
Qpatch IC50 (huNav1.7α + β1 [9]): 18 nM

B20: F010301559 (VHH)
VHH: EVQLVESGGGLVQAGGSLRLSCAASGRILRIGYMRWHRQGAGKQREFVARITDGSATGYADSVKGRFTISRDNAKNTVYLQMNNLNPEDTAVYYCEALVTASVRGGSIHSGTYWGRGTLVTVSS
Qpatch IC50 (huNav1.7α + β1 [9]): 12 nM

B22: F010301563 (VHH)
VHH: EVQLVESGGGLVQAGGSLRLSCAASGRILRIGYMRWHRQGAGKQREFVARITDDSATGYADSVKGRFTISRDNAKNTVYLQMNNLNPEDTAVYYCEALVTASVRGGSIHSGTYWGRGTLVTVSS
Qpatch IC50 (huNav1.7α + β1 [9]): 5 nM

Further lines, with some results ahead:

Qpatch IC50 (huNav1.7α + β1 [5]): 14 nM
B4: F010301080 (VHH)
VHH: EVQLVESGGGLVQPGGSLRLSCAASGMLFNANTQGWYRQAPGKQRELVAFIFWGGYVTYNDSVKGRFTISRDNAKRTMYLQMNSLKPEDSAIYYCSLSRYLGQGTLVTVSS

Qpatch IC50 (huNav1.7α + β1 [5]): 63 nM
B5: F010301191 (VHH)
VHH: EVQLVESGGGLVQPGGSLRLSCAASGMLFNRNTQGWYRQAPGKQRELVAFIFSGGWTNYNDSVKGRFTISRDNAKRTMYLQMNSLKPEDSAIYYCALSVYQGQGTLVTVSS

Qpatch IC50 (huNav1.7α + β1 [5]): 22 nM
B6: F010301090 (VHH)
VHH: EVQLVESGGGLVQPGGSLRLSCAASGMLFNANTQGWYRQAPGKQRELVAFIFSGGWTTYNDSVKGRFTISRDNAKRTMYLQMNSLKPEDSAIYYCSLSRYQGQGTLVTVSS

binding result (rhNav1.7α+β1-β2-β3): no binding
B9: F010302341 (VHH)
VHH: EVQLVESGGGVVQPGGSLRLSCAASSRQFIRDVFTGWYRQAPGKQRELVARIYNEGNTNYADSAKGRFTISRDNAKKTVYLQMNSLRPEDTALYYCLFSGTISTGREYRSGDYWGQGTLVTVSS
notes: F010302365 background plus A28Q, R39Q, G54E

binding result (rhNav1.7α+β1-β2-β3): no binding
B11: F010302357 (VHH)
VHH: EVQLVESGGGVVQPGGSLRLSCAASSRQFIRDVFTGWYRQAPGKQRELVARIYNEGNTNYADSVKGRFTISRDNAKKTVYLQMNSLRPEDTALYYCLFSGTISTGREYRSGDYWGQGTLVTVSS
notes: F010302365 background plus A28Q, R39Q, G54E, A63V

binding result (rhNav1.7α+β1-β2-β3): no binding
B12: F010302365 (VHH)
VHH: EVQLVESGGGVVQPGGSLRLSCAASSRAFIRDVFTGWYRRAPGKQRELVARIYNGGNTNYADSAKGRFTISRDNAKKTVYLQMNSLRPEDTALYYCLFSGTISTGREYRSGDYWGQGTLVTVSS
notes: also called F0103464B09(L11V, T24A, T25S, V40A, E44Q, F62S, S68T, M77T, T79Y, R81Q, S82aN, N82bS, K83R, G88A, V89L, N99S)

EC50 [1]: 17 nM
EC50 [4]: 30 nM
B16: F010301636 (VHH)
VHH: EVQLVESGGGVVQPGGSLRLSCAASGSIFNINSMAWYRRAPGKQRELVASSTNGGSTNYADSVKGRFTISRDNAKNVYLQMNSLRPEDTALYYCNALLQPSIYDISRTYWGQGTLVTVSS
notes: also called F0103275B05(L11V, R76N, T83R, V89L)
EC50 [2]: 14 nM
EC50 [3]: 45 nM

Qpatch IC50 (huNav1.7α + β1 [9]): 32 nM
B21: F010302391 (VHH)
VHH: EVQLVESGGGVVQPGGSLRLSCAASGRILRIGYMRWYRQAPGKQREFVARITGGSATGYADSVKGRFTISRDNAKNTVYLQMNSLRPEDTALYYCEALVTASVRGGSIHSGTYWGQGTLVTVSS
